Data reported in the supplement of paper PMC9112550, “Optimization of the antimicrobial peptide Bac7 by deep mutational scanning” (BMC Biology, 2022).

What follows are sequences tested on Escherichia coli TOP10 (assay: shrunken log2 fold change of peptide-encoding DNA abundance (4.5 h post-induction vs induction); higher = less antimicrobial activity (less host growth inhibition)). Conditions: time post-induction: 4.5 h; library: site-saturation at positions 5, 18, 19, 20.
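Further: peptides expressed intracellularly from a pBAD plasmid library in pooled LB shake-flask culture, induced with 0.3% L-arabinose, DNA abundance read by NGS, three biological replicates, DESeq2 with apeglm shrinkage.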

Sequence | shrunken log2 fold change
RRIRRRPPRLPRPRPRPFNRPRP | -0.557
RRIRPRPPRLPRPRPRPKYWPRP | -0.127
RRIRSRPPRLPRPRPRPPRNPRP | 0.415
RRIRLRPPRLPRPRPRPSHLPRP | -0.491
RRIRERPPRLPRPRPRPTIWPRP | -0.222
RRIRWRPPRLPRPRPRPMKGPRP | -0.363
RRIRVRPPRLPRPRPRPQSSPRP | -0.0172
RRIRGRPPRLPRPRPRPNPMPRP | 0.17
RRIRGRPPRLPRPRPRPFANPRP | 0.0848
RRIRNRPPRLPRPRPRPCFWPRP | -0.0333
RRIRQRPPRLPRPRPRPLALPRP | 0.318
RRIRHRPPRLPRPRPRPNFLPRP | -0.322
RRIRIRPPRLPRPRPRPVDGPRP | -0.169
RRIRVRPPRLPRPRPRPYICPRP | -0.468
RRIRCRPPRLPRPRPRPHTSPRP | -0.498
RRIRLRPPRLPRPRPRPNHTPRP | -0.33
RRIRTRPPRLPRPRPRPEGAPRP | 0.783
RRIRCRPPRLPRPRPRPTVTPRP | -0.208
RRIRCRPPRLPRPRPRPVLCPRP | -0.112
RRIRSRPPRLPRPRPRPMDCPRP | 0.00208
RRIRFRPPRLPRPRPRPGSRPRP | 0.191
RRIRPRPPRLPRPRPRPLLMPRP | -0.185
RRIRFRPPRLPRPRPRPNGIPRP | -0.286
RRIRRRPPRLPRPRPRPATKPRP | 0.0529
RRIRPRPPRLPRPRPRPPERPRP | 0.322

Sequence | shrunken log2 fold change
RRIRGRPPRLPRPRPRPSSPPRP | -0.0496
RRIRTRPPRLPRPRPRPSFVPRP | -0.488
RRIRNRPPRLPRPRPRPQMDPRP | 0.0304
RRIRGRPPRLPRPRPRPHSYPRP | 0.231
RRIRQRPPRLPRPRPRPCDTPRP | -0.435
RRIRCRPPRLPRPRPRPWYAPRP | -0.529
RRIRQRPPRLPRPRPRPHFYPRP | -0.229
RRIRSRPPRLPRPRPRPCWSPRP | 0.0886
RRIRMRPPRLPRPRPRPPTTPRP | 0.991
RRIRERPPRLPRPRPRPSLSPRP | -0.573
RRIRTRPPRLPRPRPRPGGFPRP | 0.413
RRIRCRPPRLPRPRPRPAHNPRP | -0.151
RRIRYRPPRLPRPRPRPVPYPRP | -0.0727
RRIRSRPPRLPRPRPRPHLMPRP | -0.0307
RRIRGRPPRLPRPRPRPGEIPRP | 0.727
RRIRLRPPRLPRPRPRPVFQPRP | 0.042
RRIRYRPPRLPRPRPRPKFAPRP | -0.44
RRIRLRPPRLPRPRPRPGDSPRP | -0.23
RRIRFRPPRLPRPRPRPQSKPRP | 0.379
RRIRHRPPRLPRPRPRPDHCPRP | 0.0278
RRIRHRPPRLPRPRPRPENSPRP | -0.304
RRIRCRPPRLPRPRPRPFNAPRP | -0.521
RRIRPRPPRLPRPRPRPMSRPRP | -0.0311
RRIRQRPPRLPRPRPRPPTGPRP | 0.0124
RRIRWRPPRLPRPRPRPFCLPRP | 0.0169

Sequence | shrunken log2 fold change
RRIRQRPPRLPRPRPRPSKKPRP | 0.0216
RRIRRRPPRLPRPRPRPMEFPRP | 0.0274
RRIRPRPPRLPRPRPRPSGFPRP | 0.241
RRIRDRPPRLPRPRPRPMYNPRP | -0.354
RRIRTRPPRLPRPRPRPENNPRP | -0.267
RRIRDRPPRLPRPRPRPTSNPRP | 0.24
RRIRQRPPRLPRPRPRPSMQPRP | -0.0429
RRIRMRPPRLPRPRPRPWGTPRP | 0.254
RRIRHRPPRLPRPRPRPGDCPRP | -0.0887
RRIRMRPPRLPRPRPRPIQQPRP | -0.0206
RRIRERPPRLPRPRPRPGFWPRP | 0.407
RRIRMRPPRLPRPRPRPVGNPRP | 0.0176
RRIRWRPPRLPRPRPRPDWDPRP | 0.243
RRIRFRPPRLPRPRPRPPEQPRP | -0.0209
RRIRIRPPRLPRPRPRPWKNPRP | -0.235
RRIRDRPPRLPRPRPRPRYVPRP | -0.0272
RRIRMRPPRLPRPRPRPKSQPRP | 2.06
RRIRYRPPRLPRPRPRPQVGPRP | -0.0385
RRIRNRPPRLPRPRPRPNDCPRP | 0.0423
RRIRQRPPRLPRPRPRPFPIPRP | -0.0231
RRIRERPPRLPRPRPRPYSFPRP | -0.0431
RRIRIRPPRLPRPRPRPSSSPRP | 0.148
RRIRWRPPRLPRPRPRPIVTPRP | 0.0938
RRIRARPPRLPRPRPRPDYWPRP | 0.139
RRIRTRPPRLPRPRPRPKCIPRP | -0.292
